Test [1] deals with T1, melanoma differentiation-associated protein 5 (MDA5) (Homo sapiens (THP1 cells, endogenous), UniProt Q9BYX4).
In test [2] the target is T1, melanoma differentiation-associated …. Kind of test: immunoprecipitation; first IP (IP1): antibody A coupled to Dynabeads, incubated with THP1 cell lysate (native MDA5) 2 h at 4 °C, high-salt washes; IP analysed by western blot for MDA5. The conditions noted are these: one partner purified.
For test [3] the target is unchanged. In words: immunoprecipitation; second IP (IP2): MDA5 eluted from IP1 with urea cracking buffer (6 M urea, 1% SDS, 65 °C), neutralised with T-20 IP buffer, incubated with antibody B on Protein G Dynabeads 2 h at 4 °C; IP analysed by western blot for MDA5. The conditions noted are these: both partners purified.

Where two headings read alike, the source gives them in different places.

T1 sequence (Q9BYX4 whole entry): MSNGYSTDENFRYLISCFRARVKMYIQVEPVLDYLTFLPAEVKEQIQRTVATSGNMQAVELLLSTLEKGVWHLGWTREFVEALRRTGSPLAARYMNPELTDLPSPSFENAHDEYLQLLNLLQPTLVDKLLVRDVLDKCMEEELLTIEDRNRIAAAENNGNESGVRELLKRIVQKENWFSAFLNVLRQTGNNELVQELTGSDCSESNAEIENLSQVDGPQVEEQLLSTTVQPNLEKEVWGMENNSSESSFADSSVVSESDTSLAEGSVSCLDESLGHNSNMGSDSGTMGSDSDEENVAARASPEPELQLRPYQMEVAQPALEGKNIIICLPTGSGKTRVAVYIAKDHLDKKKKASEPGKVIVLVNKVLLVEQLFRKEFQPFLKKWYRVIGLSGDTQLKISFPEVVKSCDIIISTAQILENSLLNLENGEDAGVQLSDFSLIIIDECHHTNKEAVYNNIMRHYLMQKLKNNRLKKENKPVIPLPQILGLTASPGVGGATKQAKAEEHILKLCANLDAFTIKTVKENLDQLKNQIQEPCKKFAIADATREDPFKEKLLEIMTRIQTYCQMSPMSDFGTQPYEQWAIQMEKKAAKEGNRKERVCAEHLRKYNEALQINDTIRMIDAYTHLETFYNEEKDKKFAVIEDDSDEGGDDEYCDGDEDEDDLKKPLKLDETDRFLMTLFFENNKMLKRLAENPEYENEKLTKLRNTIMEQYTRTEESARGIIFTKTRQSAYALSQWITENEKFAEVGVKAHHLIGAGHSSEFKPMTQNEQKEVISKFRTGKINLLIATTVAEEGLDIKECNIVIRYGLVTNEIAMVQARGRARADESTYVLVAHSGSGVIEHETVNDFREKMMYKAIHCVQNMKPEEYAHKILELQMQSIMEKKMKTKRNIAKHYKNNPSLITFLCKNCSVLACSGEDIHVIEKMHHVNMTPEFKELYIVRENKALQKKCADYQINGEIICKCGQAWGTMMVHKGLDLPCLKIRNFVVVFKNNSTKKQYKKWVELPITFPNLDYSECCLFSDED

B1: mAb 17 (antibody, V domains shown)
VH: QVQLQQSGAELVRPGASVTLSCKASGYTFADYEIHWVRQTPVHGLEWIGAIGPETGNTAYNQKFKGKATLTVDKSSSTVYMDLRSLTSEDSAVYYCTRGRILDWGQGTLVTVSA
VL: DVVMTQTPLSLPVSLGDQASISCRSSQSLVHSNGNTYLHWYLQKPGQSPKLLIYKVSKRFSGVPDRFSGSGSGTDFTLKISRVEAEDLGVYFCSQSTHIPYTFGGGTKLEIK
Turning to B1, the binding result in test [1] is “binds”.

B2: anti-MDA5 monoclonal antibody A (clone 16) (antibody, V domains shown)
VH: QVQLQQSGPDLVRPGTSVKMSCKAAGYTFTNSWIGWLKQRPGHGLEWIGDIYPGGGDTNSNENFKGKATLTADTSSSTAYMQLSSLTSEDSAVYYCARSTVIMRGYFDVWGAGTMVTVSS
VL: DIQMTQSPASLSASVGETVTITCRASGNIHNFLAWYQQKQGKSPQLLVYNAKTLADGVPSRFSGSGSGTQYSLKINSLQPEDFGSYYCQHFWSTPLTFGAGTKLELK
notes: Monoclonal antibody raised against MDA5 (generated by C. Song and B. Jin); covalently coupled to Dynabeads for the IP; also called Ab A; monoclonal antibody 16; source: hybridoma cells grown in bioreactors (CELLline)
For the molecule B2, in test [2], the binding result is “binds”.

B3: anti-MDA5 monoclonal antibody B (clone 22) (antibody, V domains shown)
VH: QVQLQQSGPELVKPGASVKMSCKASGYTFTDYVISWVKQRTGQGLEWIGEIYPGSGNTFYNEKFKGKATLTADKSSNTAYMQLSSLTSEDSAVYFCARSGDYDLDYWGQGTSVTVSS
VL: EIVLTQSPTTMAASPGEKITITCSASSSISSNYLHWYQQKPGFSPKLLIYRTSNLASGVPARFSGSGSGTSYSLTIGTMEAEDVATYYCQQGGSIPLTFGAGTKLELK
notes: Hybridoma was non-recoverable; In some radiolabeling experiments pooled ascites fluids from several hybridoma clones including antibody B were used instead; Preincubated with Protein G Dynabeads for the IP; also called Ab B; monoclonal antibody 22
In the case of B3, the binding result in test [3] was “binds”.

The values above are taken from PMC13506345, “Loss of cellular RNA homeostasis contributes to MDA5 activation during virus infection” (Nature Immunology, 2026).
